Target: T1, ISP1-ISP2 enzyme complex (Mus musculus, UniProt Q924N9+Q99MS4)
T1 construct: The native ISP enzyme complex was purified from mouse uterine tissue homogenates; from tissue; host or cells: uterus of pregnant CD1 mice (4.5-6.5 dpc)
Assay: Inhibition of proteolytic activity of ISP enzyme complex, chromogenic assay with BAPNA as substrate
Assay type: biochemical
Experimental: Many general serine proteinase inhibitors were tested in order to identify suitable ISP inhibitors when BAPNA was used as a substrate. These included Benzamidine hydrochloride, 4-(Amidino-Phenyl)-Methane-Sulfonyl Fluoride (APMSF), L-1 Chloro-3- [4-tosyl-amido]-7-amino-2-heptanone. HCl (TLCK), Trypsin Soybean Inhibitor (TSI), Bis (5-amidino-2-benzimadozolyl) methane (BABIM), Gabexate mesylate, Nafamostat, and the kunitz family serpins Uterine Plasmin-Trypsin Inhibitor (UPTI) and Secretary Leukocyte proteinase inhibitor (SLPI).
Only inhibitors specific for trypsin-like serine proteinases were able to inhibit the ISPs (Fig. 4B and Additional file 2. Table 1). IC50 (concentration of an inhibitor capable of inhibiting the enzyme activity by 50%) values were obtained by plotting inhibition data, which were extrapolated into Cheng and Prusoff's equation to derive the dissociation constant (Ki).
Chromogenic assays were carried out using the p-Nitroanilide conjugated peptidic substrates. The reaction conditions used were: 4 mM BAPNA (substrate), in 25 mM Tris.Cl (pH 8.0) and 10 mM EDTA reaction buffer, in a total reaction volume of 0.5 mL. The reactions were carried out at room temperature in a glass cuvette (1 cm path length), and scanned at wavelength maxima of 405 nm using a spectrophotometer. 1 Unit of enzyme is defined as enzyme activity sufficient for the breakdown of 1 μM of substrate/ml/min. The affinity of ISP complex with various substrates was characterized by measuring enzyme activity at differing substrate concentrations and plotting enzyme activity [V] vs. substrate concentration [S]. The Km was calculated using the Michaelis Menton equation (Km = [S] at 1/2 Vmax).
IC50 values were derived by plotting enzyme activity (V) vs. inhibitor concentration [I]. Dissociation constants (Ki) values for different inhibitors were determined by using the Cheng and Prusoff equation (Ki = IC50/1 + [S]/Km).

T1 sequence (Q924N9 27-274): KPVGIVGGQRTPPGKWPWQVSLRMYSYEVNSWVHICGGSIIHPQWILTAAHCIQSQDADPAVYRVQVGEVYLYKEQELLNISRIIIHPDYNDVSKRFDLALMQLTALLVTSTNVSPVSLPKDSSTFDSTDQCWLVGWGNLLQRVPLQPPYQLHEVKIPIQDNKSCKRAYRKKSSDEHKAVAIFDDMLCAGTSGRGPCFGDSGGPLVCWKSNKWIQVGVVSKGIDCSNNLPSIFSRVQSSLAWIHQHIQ
T1 sequence (Q99MS4 18-279): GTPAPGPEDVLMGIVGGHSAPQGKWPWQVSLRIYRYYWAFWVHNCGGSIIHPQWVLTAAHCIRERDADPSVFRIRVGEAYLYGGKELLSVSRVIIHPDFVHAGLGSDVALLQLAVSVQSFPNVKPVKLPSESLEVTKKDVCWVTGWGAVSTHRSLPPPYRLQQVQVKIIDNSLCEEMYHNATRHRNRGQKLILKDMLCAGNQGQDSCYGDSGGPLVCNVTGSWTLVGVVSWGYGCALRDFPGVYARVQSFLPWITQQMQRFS

IC50 (4 mM BAPNA substrate, 25 mM Tris.Cl pH 8.0, room temperature, read-out: IC50%): 8 µM
Affinity for ISP enzyme (Fig. 4B, compared to Benzamidine): relatively high affinity
Influence on ISP activity (general trypsin inhibitors): inhibitory influence
B1: TSI: Trypsin Soybean Inhibitor, obtained from Sigma Aldrich (protein, UniProt P01070 25-205, looked up)
Trypsin inhibitor A: DFVLDNEGNPLENGGTYYILSDITAFGGIRAAPTGNERCPLTVVQSRNELDKGIGTIISSPYRIRFIAEGHPLSLKFDSFAVIMLCVGIPTEWSVVEDLPEGPAVKIGENKDAMDGWFRLERVSDDEFNNYKLVFCPQQAEDDKCGDIGISIDHDDGTRRLVVSKNKPLVVQFQKLDKESL

Source: PMC1713233, “Implantation Serine Proteinases heterodimerize and are critical in hatching and implantation” (BMC Developmental Biology, 2006)
